The chains are these.
B1: Stu2-HA (wild-type Stu2, 3xHA tagged) [S. cerevisiae] / γ-tubulin (Tub4) [S. cerevisiae (endogenous in yeast extract)] (parent)
chain 1: MSGEEEVDYTTLPLEERLTYKLWKARLEAYKELNQLFRNSVGDISRDDNIQIYWRDPTLFAQYITDSNVVAQEQAIVALNSLIDAFASSSLKNAHNITLISTWTPLLVEKGLTSSRATTKTQSMSCILSLCGLDTSITQSVELVIPFFEKKLPKLIAAAANCVYELMAAFGLTNVNVQTFLPELLKHVPQLAGHGDRNVRSQTMNLIVEIYKVTGNNSDLLEEILFKKLKPIQVKDLHKLFAKVGDEPSSSKMLFEWEKRELEKKRSQEEEARKRKSILSNDEGEYQIDKDGDTLMGMETDMPPSKQQSGVQIDTFSMLPEETILDKLPKDFQERITSSKWKDRVEALEEFWDSVLSQTKKLKSTSQNYSNLLGIYGHIIQKDANIQAVALAAQSVELICDKLKTPGFSKDYVSLVFTPLLDRTKEKKPSVIEAIRKALLTICKYYDPLASSGRNEDMLKDILEHMKHKTPQIRMECTQLFNASMKEEKDGYSTLQRYLKDEVVPIVIQIVNDTQPAIRTIGFESFAILIKIFGMNTFVKTLEHLDNLKRKKIEETVKTLPNFSIASGSTHSTIETNKQTGPMENKFLLKKSSVLPSKRVASSPLRNDNKSKVNPIGSVASASKPSMVAANNKSRVLLTSKSLATPKNVVANSTDKNEKLIEEYKYRLQKLQNDEMIWTKERQSLLEKMNNTENYKIEMIKENEMLREQLKEAQSKLNEKNIQLRSKEIDVNKLSDRVLSLENELRNMEIELDRNKKRNDTNLQSMGTISSYSIPSSTVSSNYGVKSLSSALPFKEEEDVRRKEDVNYERRSSESIGDLPHRVNSLNIRPYRKNGTGVSSVSDDLDIDFNDSFASEESYKRAAAVTSTLKARIEKMKAKSRREGTTRT
chain 2: MGGEIITLQAGQCGNHVGKFLWSQLAKEHAIGTDGLSQLPDSSTERDDDTKPFFRENSRNKFTPRAIMMDSEPSVIADVENTFRGFFDPRNTWVASDGASAGNSWANGYDIGTRNQDDILNKIDKEIDSTDNFEGFQLLHSVAGGTGSGLGSNLLEALCDRYPKKILTTYSVFPARSSEVVVQSYNTILALRRLIEDSDATVVFDNASLLNISGKVFRNPNIDLQHTNQLISTIISSVTNSIRFPSYMYSSMSSIYSTLIPSPELHFLSPSFTPFTSDYIHDDIAHKGHSSYDVMLDLLDPSNSLVSTAMNNPTYFNVYNTIIGNVEPRQISRAMTKLQQRIKFPSWSSSAMHVNIGRRSPYLPLQPNENEVSGMMLSNMSTVVNVFENACNTFDKVFAKGAFLNNYNVGDLFQSMQNVQDEFAESREVVQSLMEDYVAAEQDSYLDDVLVDDENMVGELEEDLDADGDHKLV

In the assay the parent is B1. The experiment in a line: co-immunoprecipitation, western blot densitometry. Particulars: with γ-tubulin (Tub4) [S. cerevisiae (endogenous in yeast extract)], PBS buffer, three biological replicates, read off a plot; for screen value: parent: 0; for ratio to parent: parent: 1. On the technique in general: In western blotting, separated proteins are transferred to a membrane and probed.

With chain 1 K252Q K469Q, the screen value came out at 1 and the ratio to parent amounted to 2.5.
Taken in the same sequence, the figures for chain 1 K252R K469R were -0.5 and 0.7.
Taken in the same sequence, the figures for chain 1 K870Q were -0.6 and 0.9.
Consider chain 1 K870R, for which the screen value was 0.1 and the ratio to parent came out at 1.5.
Taken in the same sequence, the figures for chain 1 K252Q K469Q K870Q were 1.8 and 5.5.
The corresponding values for chain 1 K252R are -0.05 and 1.2.
Taken in the same sequence, the figures for chain 1 K252Q were 1.8 and 7.
On to chain 1 K252R K469R K870R, for which the screen value was -3.
For the variant chain 1 K469R, the screen value came out at 0.75 and the ratio to parent amounted to 2.2.
As for chain 1 K469Q, the screen value is 1.5 and the ratio to parent was 4.

(Values after publication PMC9491610.)
